# Laboratory results: the RNAGym collection of RNA variant scans (doi:10.1093/molbev/msab373)
# B1: Azoarcus group I ribozyme (parent)
# chain: GUGCCUUGCGCCGGGAAACCACGCAAGGGAUGGUGUCAAAUUCGGCGAAACCUAAGCGCCCGCCCGGGCGUAUGGCAACGCCGAGCCAAGCUUCGGCGCCUGCGCCGAUGAAGGUGUAGAGACUAGACGGCACCCACCUAAGGCAAACGCUAUGGUGAAGGCAUAGUCCAGGGAGUGGCGAAAGUCACACAAACCGG
# Variants of: B1
# Assay: reverse-splicing fitness (ratio to wild type); higher = more active; in vitro selection; Mg2+ level not given
# Method in brief: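 An in vitro group I ribozyme library with randomized positions was T7-transcribed and gel-purified. In triplicate, 10 pmol RNA in EPPS pH 7.5 was reacted with 50 pmoles of a 30-nt RNA substrate for 1 h at 37 °C across several added MgCl2 levels (1–48 mM), then stopped with EDTA. Products were reverse transcribed from a substrate-complementary primer, PCR-amplified and sequenced (HiSeq 4000). Fitness is a variant's read proportion after selection over that before, normalised to wild type.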
row,Variant,reverse-splicing fitness
1,C82A A145G C169G U176G,0.00481
2,C82A A145G C169U,0.0161
3,C82A A145G C169U U176A,0.0146
4,C82A A145G C169U U176C,0.0143
5,C82A A145G C169U U176G,0.00459
6,C82A A145G U176A,0.387
7,C82A A145G U176C,0.488
8,C82A A145G U176G,0.113
9,C82A A145U,0.635
10,C82A A145U C150A,0.0549
11,C82A A145U C150A C169A,0.00847
12,C82A A145U C150A C169A U176A,0.0129
13,C82A A145U C150A C169A U176C,0.0105
14,C82A A145U C150A C169A U176G,0.0053
15,C82A A145U C150A C169G,0.00813
16,C82A A145U C150A C169G U176A,0.0139
17,C82A A145U C150A C169G U176C,0.0131
18,C82A A145U C150A C169G U176G,0.0059
19,C82A A145U C150A C169U,0.00955
20,C82A A145U C150A C169U U176A,0.0139
21,C82A A145U C150A C169U U176C,0.013

row,Variant,reverse-splicing fitness
1,C82A A145U C150A C169U U176G,0.00584
2,C82A A145U C150A U176A,0.0485
3,C82A A145U C150A U176C,0.0555
4,C82A A145U C150A U176G,0.0181
5,C82A A145U C150G,0.0675
6,C82A A145U C150G C169A,0.00902
7,C82A A145U C150G C169A U176A,0.0118
8,C82A A145U C150G C169A U176C,0.00974
9,C82A A145U C150G C169A U176G,0.00583
10,C82A A145U C150G C169G,0.00797
11,C82A A145U C150G C169G U176A,0.00926
12,C82A A145U C150G C169G U176C,0.00607
13,C82A A145U C150G C169G U176G,0.0053
14,C82A A145U C150G C169U,0.00935
15,C82A A145U C150G C169U U176A,0.00877
16,C82A A145U C150G C169U U176C,0.0116
17,C82A A145U C150G C169U U176G,0.00595
18,C82A A145U C150G U176A,0.0365
19,C82A A145U C150G U176C,0.0521
20,C82A A145U C150G U176G,0.0081
21,C82A A145U C150U,0.449

row,Variant,reverse-splicing fitness
1,C82A A145U C150U C169A,0.00956
2,C82A A145U C150U C169A U176A,0.0121
3,C82A A145U C150U C169A U176C,0.00936
4,C82A A145U C150U C169A U176G,0.00602
5,C82A A145U C150U C169G,0.00961
6,C82A A145U C150U C169G U176A,0.0124
7,C82A A145U C150U C169G U176C,0.013
8,C82A A145U C150U C169G U176G,0.00539
9,C82A A145U C150U C169U,0.0127
10,C82A A145U C150U C169U U176A,0.0118
11,C82A A145U C150U C169U U176C,0.0131
12,C82A A145U C150U C169U U176G,0.00508
13,C82A A145U C150U U176A,0.273
14,C82A A145U C150U U176C,0.324
15,C82A A145U C150U U176G,0.0823
16,C82A A145U C169A,0.0085
17,C82A A145U C169A U176A,0.00948
18,C82A A145U C169A U176C,0.00899
19,C82A A145U C169A U176G,0.00484
20,C82A A145U C169G,0.00976
21,C82A A145U C169G U176A,0.0105

row,Variant,reverse-splicing fitness
1,C82A A145U C169G U176C,0.0127
2,C82A A145U C169G U176G,0.00461
3,C82A A145U C169U,0.0136
4,C82A A145U C169U U176A,0.0117
5,C82A A145U C169U U176C,0.0127
6,C82A A145U C169U U176G,0.00434
7,C82A A145U U176A,0.386
8,C82A A145U U176C,0.482
9,C82A A145U U176G,0.157
10,C82A C150A,0.0666
11,C82A C150A C169A,0.0109
12,C82A C150A C169A U176A,0.0211
13,C82A C150A C169A U176C,0.0177
14,C82A C150A C169A U176G,0.007
15,C82A C150A C169G,0.00927
16,C82A C150A C169G U176A,0.0198
17,C82A C150A C169G U176C,0.0241
18,C82A C150A C169G U176G,0.0072
19,C82A C150A C169U,0.00897
20,C82A C150A C169U U176A,0.0152
